# Measurements: PMC8672811 (Journal of molecular biology, 2021)
# Substitutions are numbered along the chain they refer to. Names may count otherwise. Like-named read-outs stand apart in the source and are kept apart here.
# B1: KcsA W67F channel (natural protein, UniProt P0A334 1-125, looked up)
# chain: MPPMLSGLLARLVKLLLGRHGSALHWRAAGAATVLLVIVLLAGSYLAVLAERGAPGAQLITYPRALFWSVETATTVGYGDLYPVTLWGRLVAVVVMVAGITSFGLVTAALATWFVGREQERRGHF
# B2: KcsA Y82A channel (natural protein, UniProt P0A334 1-125, looked up)
# chain: B1 chain with F67W, Y82A
# B3: KcsA W67F/F103A channel (natural protein, UniProt P0A334 1-125, looked up)
# chain: B1 chain with F103A
# B4: KcsA W67F channel, locked open (disulfide cross-linked open-state construct) (natural protein, UniProt P0A334 21-125, looked up)
# chain: GSALQWRCAGAATVLLVIVLLAGSYLAVLAERGAPGAQLITYPRALFWSVETATTVGYGDLYPVTLWGRLVAVVVMVAGITSFGLVTAALATWFVGQCQQQQGHF
# modifications: Cys mutant channels in the cross-linked state (disulfide crosslink between subunits)
# B5: KcsA WT channel trapped with the activation gate open (disulfide cross-linked open-state construct) (natural protein, UniProt P0A334 21-125, looked up)
# chain: B4 chain with F47W
# modifications: Cys mutant channels in the cross-linked state (disulfide crosslink between subunits)
# Key:
# [1] = target: the molecule itself; experiment: SEC
# [2] = target: the molecule itself; experiment: SEC; remark: listed apart in the source
# [3] = target: the molecule itself; experiment: SEC; remark: listed apart in the source
# [4] = target: the molecule itself; experiment: crystal structure
protein,measurement,setting,value
B1,stoichiometry N,[1],4
B2,stoichiometry N,[2],4
B3,binding result,[3],binds
B4,stoichiometry N,[3],4
B5,binding result,[4],binds
